# Test results published in the supplement of paper PMC11316812.
# ± gives the standard deviation of the averaged measurements.
# Assays:
# MCF7 = assay: percentage of EdU-negative (G0-arrested) nuclei per well, 72 h; higher = more G0 arrest; conditions: reference: sequence is the full UniProt precursor, the tested protein was the secreted form or ectodomain
# hTERT-HMEC = assay: as above; conditions: reference: sequence is the full UniProt precursor, the tested protein was the secreted form or ectodomain
# [1] = protein concentration 0.03034 µM
# [2] = protein concentration 0.3034 µM
# [3] = protein concentration 0.0225 µM
# [4] = protein concentration 0.0257143 µM
# [5] = protein concentration 0.257143 µM
# 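Also: secreted proteins added to cultured cells, EdU pulse at the end, nuclei found by Hoechst imaging, EdU status from nuclear versus surrounding ring intensity ratio, PBS as neutral control.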
Sequence,percentage of EdU-negative (MCF7; [3]) [%],percentage of EdU-negative (MCF7; protein concentration 0.225 µM) [%],percentage of EdU-negative (hTERT-HMEC; [3]) [%],percentage of EdU-negative (hTERT-HMEC; protein concentration 0.225 µM) [%],further results
MQGAQEASASEMLPLLLPLLWAGALAQERRFQLEGPESLTVQEGLCVLVPCRLPTTLPASYYGYGYWFLEGADVPVATNDPDEEVQEETRGRFHLLWDPRRKNCSLSIRDARRRDNAAYFFRLKSKWMKYGYTSSKLSVRVMALTHRPNISIPGTLESGHPSNLTCSVPWVCEQGTPPIFSWMSAAPTSLGPRTTQSSVLTITPRPQDHSTNLTCQVTFPGAGVTMERTIQLNVSYAPQKVAISIFQGNSAAFKILQNTSSLPVLEGQALRLLCDADGNPPAHLSWFQGFPALNATPISNTGVLELPQVGSAEEGDFTCRAQHPLGSLQISLSLFVHWKPEGRAGGVLGAVWGASITTLVFLCVCFIFRVKTRRKKAAQPVQNTDDVNPVMVSGSRGHQHQFQTGIVSDHPAEAGPISEDEQELHYAVLHFHKVQPQEPKVTDTEYSEIKIHK,,,,,percentage of EdU-negative (MCF7; [1]): 22.4 ± 2.3%; percentage of EdU-negative (MCF7; [2]): 27.1 ± 0.29%; percentage of EdU-negative (hTERT-HMEC; [1]): 5.1074 ± 0.0018%; percentage of EdU-negative (hTERT-HMEC; [2]): 5.306 ± 0.046%
MQGPWVLLLLGLRLQLSLGIIPVEEENPDFWNRQAAEALGAAKKLQPAQTAAKNLIIFLGDGMGVSTVTAARILKGQKKDKLGPETFLAMDRFPYVALSKTYSVDKHVPDSGATATAYLCGVKGNFQTIGLSAAARFNQCNTTRGNEVISVMNRAKKAGKSVGVVTTTRVQHASPAGAYAHTVNRNWYSDADVPASARQEGCQDIATQLISNMDIDVILGGGRKYMFPMGTPDPEYPDDYSQGGTRLDGKNLVQEWLAKHQGARYVWNRTELLQASLDPSVTHLMGLFEPGDMKYEIHRDSTLDPSLMEMTEAALLLLSRNPRGFFLFVEGGRIDHGHHESRAYRALTETIMFDDAIERAGQLTSEEDTLSLVTADHSHVFSFGGYPLRGSSIFGLAPGKARDRKAYTVLLYGNGPGYVLKDGARPDVTESESGSPEYRQQSAVPLDGETHAGEDVAVFARGPQAHLVHGVQEQTFIAHVMAFAACLEPYTACDLAPRAGTTDAAHPGPSVVPALLPLLAGTLLLLGTATAP,23.9 ± 3.7,27.2 ± 0.72,4.62 ± 0.18,5.34 ± 0.29,
MQGPWVLLLLGLRLQLSLGVIPAEEENPAFWNRQAAEALDAAKKLQPIQKVAKNLILFLGDGLGVPTVTATRILKGQKNGKLGPETPLAMDRFPYLALSKTYNVDRQVPDSAATATAYLCGVKANFQTIGLSAAARFNQCNTTRGNEVISVMNRAKQAGKSVGVVTTTRVQHASPAGTYAHTVNRNWYSDADMPASARQEGCQDIATQLISNMDIDVILGGGRKYMFPMGTPDPEYPADASQNGIRLDGKNLVQEWLAKHQGAWYVWNRTELMQASLDQSVTHLMGLFEPGDTKYEIHRDPTLDPSLMEMTEAALRLLSRNPRGFYLFVEGGRIDHGHHEGVAYQALTEAVMFDDAIERAGQLTSEEDTLTLVTADHSHVFSFGGYTLRGSSIFGLAPSKAQDSKAYTSILYGNGPGYVFNSGVRPDVNESESGSPDYQQQAAVPLSSETHGGEDVAVFARGPQAHLVHGVQEQSFVAHVMAFAACLEPYTACDLAPPACTTDAAHPVAASLPLLAGTLLLLGASAAP,24.8 ± 1.8,24.4 ± 0.42,5.37 ± 0.33,6.16 ± 1.5,
MQIITTALVCLLLAGMWPEDVDSKSMQVPFSRCCFSFAEQEIPLRAILCYRNTSSICSNEGLIFKLKRGKEACALDTVGWVQRHRKMLRHCPSKRK,24.1 ± 3.4,25.4 ± 0.28,4.79 ± 0.52,12 ± 1.1,
MQKVTLGLLVFLAGFPVLDANDLEDKNSPFYYDWHSLQVGGLICAGVLCAMGIIIVMSAKCKCKFGQKSGHHPGETPPLITPGSAQS,,,,,percentage of EdU-negative (MCF7; [4]): 26.4 ± 0.91%; percentage of EdU-negative (MCF7; [5]): 24.9 ± 1%; percentage of EdU-negative (hTERT-HMEC; [4]): 4.87 ± 0.45%; percentage of EdU-negative (hTERT-HMEC; [5]): 4.969 ± 0.0066%
MQLPLALCLVCLLVHTAFRVVEGQGWQAFKNDATEIIPELGEYPEPPPELENNKTMNRAENGGRPPHHPFETKDVSEYSCRELHFTRYVTDGPCRSAKPVTELVCSGQCGPARLLPNAIGRGKWWRPSGPDFRCIPDRYRAQRVQLLCPGGEAPRARKVRLVASCKCKRLTRFHNQSELKDFGTEAARPQKGRKPRPRARSAKANQAELENAY [Q9BQB4],28.1 ± 1.4,34 ± 2,5.07 ± 1.1,18.6 ± 2.6,
MQLQASLSFLLILTLCLELRSELARDTIKDLLPNVCAFPMEKGPCQTYMTRWFFNFETGECELFAYGGCGGNSNNFLRKEKCEKFCKFT,,,,,percentage of EdU-negative (MCF7; [4]): 25.8 ± 1.5%; percentage of EdU-negative (MCF7; [5]): 24.81 ± 0.086%; percentage of EdU-negative (hTERT-HMEC; [4]): 4.34 ± 0.046%; percentage of EdU-negative (hTERT-HMEC; [5]): 4.94 ± 0.32%
MQLRNPELHLGCALALRFLALVSWDIPGARALDNGLARTPTMGWLHWERFMCNLDCQEEPDSCISEKLFMEMAELMVSEGWKDAGYEYLCIDDCWMAPQRDSEGRLQADPQRFPHGIRQLANYVHSKGLKLGIYADVGNKTCAGFPGSFGYYDIDAQTFADWGVDLLKFDGCYCDSLENLADGYKHMSLALNRTGRSIVYSCEWPLYMWPFQKPNYTEIRQYCNHWRNFADIDDSWKSIKSILDWTSFNQERIVDVAGPGGWNDPDMLVIGNFGLSWNQQVTQMALWAIMAAPLFMSNDLRHISPQAKALLQDKDVIAINQDPLGKQGYQLRQGDNFEVWERPLSGLAWAVAMINRQEIGGPRSYTIAVASLGKGVACNPACFITQLLPVKRKLGFYEWTSRLRSHINPTGTVLLQLENTMQMSLKDLL,,,,,percentage of EdU-negative (MCF7; protein concentration 0.021 µM): 24.8 ± 0.73%; percentage of EdU-negative (MCF7; protein concentration 0.21 µM): 24.3 ± 0.28%; percentage of EdU-negative (hTERT-HMEC; protein concentration 0.021 µM): 5.25 ± 0.8%; percentage of EdU-negative (hTERT-HMEC; protein concentration 0.21 µM): 4.6 ± 0.74%
MQLTRCCFVFLVQGSLYLVICGQDDGPPGSEDPERDDHEGQPRPRVPRKRGHISPKSRPMANSTLLGLLAPPGEAWGILGQPPNRPNHSPPPSAKVKKIFGWGDFYSNIKTVALNLLVTGKIVDHGNGTFSVHFQHNATGQGNISISLVPPSKAVEFHQEQQIFIEAKASKIFNCRMEWEKVERGRRTSLCTHDPAKICSRDHAQSSATWSCSQPFKVVCVYIAFYSTDYRLVQKVCPDYNYHSDTPYYPSG,28.1 ± 0.43,31.8 ± 2.5,6.5 ± 0.97,6.09 ± 1.7,
